Our source for the amyloid nucleation score values is the supplement of paper PMC12042874.

± gives the uncertainty stated by the source.

The data set can be described thus: amyloid nucleation score (Sup35N fusion, yeast selection) (log enrichment); library NNK1; higher = more nucleation; inactive = no reads after selection. In outline:
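Libraries of peptides of 20 random codons fused to Sup35N were expressed in psi-negative yeast and induced 24 hours with 100 μM copper sulfate. Selection was 7 days at 30°C on medium lacking adenine and uracil, and plasmid inserts were Illumina-sequenced before and after selection. Nucleation score is the DiMSum log enrichment of output over input reads, centred on the mode score of non-aggregating sequences, and sequences with under 100 input reads were left out.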
On to LAGMTSKHFTLRMMSHLDSY, for which the amyloid nucleation score was determined as 0.043 ± 1. With YASSYNKRCNNVMNVVW, the amyloid nucleation score is -0.299 ± 0.25. The figure for LFTTFNNLISVFTVVLNSNQ is 6.79 ± 0.076; for VCFALSI it is -0.098 ± 0.46. The value for WSWRRVVAWLH was 0.727 ± 0.34. The value for SVCILHMRRSCVGKPPKYNA was “inactive”; that for ARAFPNMPPVLILILHLRLY was 0.961 ± 0.35; that for GRAYGSVCILRLGC was 0.835 ± 0.63. Regarding LGNLM, the amyloid nucleation score was -0.109 ± 0.95.

For SLGLNMFGLLCSNFQSVRVK, the amyloid nucleation score was found to be 0.129 ± 0.53.

Consider MRLSCLRRWGSTSVSTG, for which the amyloid nucleation score was -0.305 ± 0.36. As to ILICKLHRRVIRGWNFRSDR, the amyloid nucleation score was 0.086 ± 0.48. For RNGLALRLTNTTRSTYLSRQ, the amyloid nucleation score was -0.166 ± 1.1.

For the substance RSVPCPYYGLL, the amyloid nucleation score was determined as 0.033 ± 0.66.

GLHKYPCYPTNSRYVVVINM yielded an amyloid nucleation score of 3.27 ± 0.066. The value for FSVLVPMYK was -0.361 ± 0.6.

GNANVKCGVRAISDNRARRI gave an amyloid nucleation score of 0.003 ± 0.43. The figure for SPPDVSNN is -0.169 ± 0.75; for IYTLGKKGMNHHDVGQWLFT it is 1.55 ± 0.5; for ADCFNLYGRTFDKFKPPHMD it is 0.631 ± 0.54. For SMCNCDPSVALRSMY, the amyloid nucleation score was -0.279 ± 0.25. The entry for WFQVASRVGLKKVYWVGHLE is “inactive”.

As for GGWGRGECPYSHTKWYVKSG, the amyloid nucleation score was -0.999 ± 0.94. The figure for NNLSANVSLGPGCAGGQPRA is 0.764 ± 0.61; for VCGVRMVLALSRFVLSAINN it is 0.177 ± 0.65; for LFFQSDMFGVFCISYTTGVS it is 0.323 ± 0.32. With CFSGPPMTESVYNPTSGNEH, the amyloid nucleation score came out at 0.152 ± 0.72.

Regarding MFYKSRLYNRYRYRHRCYNT, the amyloid nucleation score is -0.072 ± 0.27. Take AVWLVQSHPN: the amyloid nucleation score was determined as 0.499 ± 0.58. Turning to CRMTGSFKSTCRSKGLASCS, the amyloid nucleation score stood at 0.002 ± 0.3. The figure for GRLTLSRGRCCQGSLNTVYP is 0.007 ± 0.75; for HVMIFVIFPENYNICTFMKY it is 2.29 ± 0.2; for GKSNLARHAPNLEVTMRGTE it is 1.27 ± 0.42.

Take DYTLMRSLESPITDLQSSSG: the amyloid nucleation score was 0.748 ± 0.88. The value for LGATGIGVYTVGHTFKS was -0.382 ± 0.44; that for ITMYANMNSGQFTMLESMPD was -0.303 ± 0.26.

KVISFYS displayed an amyloid nucleation score of 3.21 ± 0.083. The figure for NNTFIMLIF is 6.98 ± 0.083. The figure for RFKCDVTTVDW is 0.108 ± 0.24; for RLSVVDELLCVLILGFRCYT it is 0.372 ± 1.4; for ALSSNVGSMAFSR it is -0.06 ± 0.88. The entry for SRLLMKRIYYCVYPKGTTKK is “inactive”; for TQVWTQRCPCKEASRPGLRT it is -1.19 ± 2.7; for KTFTNGLCDPDVYGTIWAM it is 0.488 ± 0.36.

As for RTVQSGHSSARCKIIGPYHD, the amyloid nucleation score is -0.077 ± 1.7. For NINPLFI, the amyloid nucleation score came out at 1.96 ± 0.26. The figure for YVWDAHIINVYLS is 6.51 ± 0.081; for LSHWAIVFVICGPRSKKGGS it is -0.115 ± 1; for IYNLDWSF it is -0.99 ± 1.3. For the substance NVSDWSHVFMSMFLIMGGCN, the amyloid nucleation score was 0.509 ± 0.66. In the case of STFMSILTSESTMRNGITNR, the amyloid nucleation score entry was “inactive”. The value for RRPNETS was -1.08 ± 2.4; that for AGLVYEIKWYYADL was -0.482 ± 0.33.

For the substance EVCFCEGEVKFWGKGAIFSR, the amyloid nucleation score was -1.88 ± 1.8. For the substance DYDIWDAMPAQFQRITMYSV, the amyloid nucleation score was -0.243 ± 0.36. As for YSFSRQVSMPSSYSFALF, the amyloid nucleation score is -0.742 ± 0.65. The value for TGCHKS was 0.915 ± 0.97; that for VLRLHAMRQQGICWSCVTGM was 0.185 ± 0.39; that for CVSHFIHCDWLGQRL was 0.135 ± 0.26.

In the case of FFISALLNSSFGEFTFGSVK, the amyloid nucleation score was -0.432 ± 0.65. The value for PFQECFLRKVYWIIWRSRPK was 0.255 ± 1.2.

Consider WLGMRMVGNVVERLYSVRCQ, for which the amyloid nucleation score was -0.111 ± 0.7. The value for RCSNLGFKFWR was -0.332 ± 0.39; that for FRQPGYMCEIRVVGFGPKPL was -0.274 ± 0.9; that for RATCVFCYTICFSWPSVWTF was 3.5 ± 0.062.

IGWCWVIMQGNIEQVDRG registered an amyloid nucleation score of 4.72 ± 0.074. As to GHLWWSVLLVPLFTVGSTSV, the amyloid nucleation score is 0.399 ± 0.56.

CWQSGMCNRSRMQAVRVPHD had an amyloid nucleation score of 0.698 ± 0.56. The value for WWIGNSTRYCVGMVWSI was “inactive”; that for VSFNTFYRRSFPFQLRTTSV was 0.329 ± 0.29. As to QCWEWIR, the amyloid nucleation score is -0.564 ± 0.84.

As to TSPSRIMS, the amyloid nucleation score stood at 1.12 ± 0.35. The value for VKMNVYYLIILNLWSYVMLG was -0.994 ± 1.4.

SHLCLAMVVRGV displayed an amyloid nucleation score of 0.507 ± 0.56.

Turning to AKELDNGIYFMKLWLREELE, the amyloid nucleation score is -0.743 ± 1.2.

The substance VQNTWVILRKL registered an amyloid nucleation score of 4.43 ± 0.095. The value for CRNWKWSRRFYYGERNGGRL was 0.416 ± 0.81. Take NEDLNS: the amyloid nucleation score stood at 0.194 ± 0.31.

Turning to LFRSRRLVCDMKFHWTFLYR, the amyloid nucleation score was -0.853 ± 0.5.

MDSCCIMTMIKHELGLPYQP had an amyloid nucleation score of 3.77 ± 0.1.

In turn, HFFDCHNSIEVSLISSCVCV showed an amyloid nucleation score of 3.97 ± 0.065. The value for VGHKNSYGRFKDIWIWLWYQ was -0.009 ± 1.4. ISNIF gave an amyloid nucleation score of 1.67 ± 0.45. The value for RSSWKVLKRFRVVRERHEIT was 0.257 ± 1.1; that for GCFSPITQWSMWHVWRVRRQ was 0.49 ± 0.97.

The substance LALVRVIGDKNRWWRILSVW yielded an amyloid nucleation score of 0.708 ± 0.58.

Consider CKVTSGDIQTYGVLGPQRPA, for which the amyloid nucleation score was -1.05 ± 1.1. The value for DYSVYRSERMCTLRAS was -0.279 ± 0.36; that for KAMLNNKWHLCSHVRTDHAV was 0.172 ± 0.32; that for MYIFVDIFAAQLVTRWKGFE was -0.97 ± 1.9.

With TSGPN, the amyloid nucleation score is -0.882 ± 0.6. As to SIFSSSEVGVQLYTMGG, the amyloid nucleation score was 0.91 ± 0.62. The value for SCLSRASIYSRFHSNLYVKM was “inactive”; that for ISRGYHRYLFSKSNECGRLN was “inactive”; that for GGIGDQVITRNVGRPREYQR was 1.34 ± 0.76. In the case of VLNEAYYDLYVYSHVSFSVL, the amyloid nucleation score is -0.248 ± 0.42. The value for WHDKVKDFRIRAGHLSYSRG was 0.486 ± 0.63; that for YGSSAL was -0.419 ± 0.23. The figure for EYWGRGEVRADMWRRWIGW is 1.23 ± 0.4; for NGSLLWYVCSSWNVMHDGSV it is -1 ± 1.3; for RLGHDRIFSIRNSQS it is -0.287 ± 0.58. Turning to YQSLVMFMEPDSRVLRVCRA, the amyloid nucleation score stood at 0.104 ± 0.69. The value for LIIRVWLKNQPDTLGKRRRE was -0.415 ± 1.4. For MSSRDNFWVSRGAMNYRMGA, the amyloid nucleation score is -0.325 ± 0.33.

For RCMGGGFRRRVNMYETPGIR, the amyloid nucleation score is -0.387 ± 0.79. The value for MYEMTG was -0.388 ± 0.19; that for GDSWRSYLRILGTYMVRRWC was 0.244 ± 0.54; that for TCLMRSRLACMFVRINEW was 1.19 ± 0.62. Turning to SWHLDWFTYPFNKSD, the amyloid nucleation score result is “inactive”. GLYLDFGYSGCYGKKL gave an amyloid nucleation score of 5.67 ± 0.082. For the substance FQMNSCNWSVTGRIVFPDVY, the amyloid nucleation score is 1.58 ± 0.42. The value for WHILPQVWGIVHMIRSNLVC was 0.99 ± 0.64; that for TTCSLVSSAAWMY was -0.223 ± 0.39. The figure for GEERFYSLKYCCKGRLWRPG is 0.179 ± 0.43; for CFEFDPFMNMVKSCWCCQVA it is -0.281 ± 0.93; for RWCLVSGMILCSLLCVYSFN it is -1.62 ± 2.4. The figure for CSWLSFVEEVGLGSERGVRG is -0.629 ± 1; for VWVLPRDNVFSIKNYMSFS it is 6.965 ± 0.045; for QVNNPSTWLMRNQIDQKLLR it is -1.8 ± 1.7. Substance CFLMNLVAYFVFLRTLS gave an amyloid nucleation score of 1.49 ± 0.56. The figure for IHESTWSVKGSWVHQRGPGP is 2.56 ± 0.21; for IAYLNKAKNLFLC it is “inactive”.

KCWPLLRITSVCVFAFTGER: the amyloid nucleation score stood at 0.937 ± 0.58. Substance IASDRFF came in with an amyloid nucleation score of 0.77 ± 0.97. The value for TLSGSYVF was -0.567 ± 0.3. The figure for VWRLSI is -0.557 ± 0.41. The value for MMKVIAANRVY was 0.315 ± 0.63; that for RPAKLMAMPKILIGPH was 0.131 ± 0.26; that for LHRRNSCSIYRLLGFCLLPI was 1.25 ± 0.6. VIMQFFILCPHSVCISSENH showed an amyloid nucleation score of 7.497 ± 0.049. As to GAFWGFFFKCLSTTLNNSWL, the amyloid nucleation score entry was “inactive”.

As for VNHTKPVDILHC, the amyloid nucleation score stood at 0.521 ± 0.31.

FRVVCVHSLSMGNVFNFDWR gave an amyloid nucleation score of 4.77 ± 0.08. The value for YRITERIFFDQKASHVWLIT was -0.165 ± 0.41; that for RLCPSCLVKWMTLWFVWIVR was 0.769 ± 0.41; that for HNLRVIFCY was 0.421 ± 0.58. On to ISGFGVIVWGVVSWVWYGTN, for which the amyloid nucleation score is -0.268 ± 0.7.

Substance NFLPRTCMLVARFRRKTYLL displayed an amyloid nucleation score of 0.879 ± 0.54. As to YGRVTDYCKCCVILRLSYWV, the amyloid nucleation score was -0.993 ± 0.77.
